# Results published in patent US20030143712A1 (J DAVID GLADSTONE INSTITUTES, published 2003).
# B1: GST-HDAC7(aa 438-912) (enzyme)
# chain: QGGHRPLSRAQSSPAAPASLSAPEPASQARVLSSSETPARTLPFTTGLIYDSVMLKHQCSCGDNSRHPEHAGRIQSIWSRLQERGLRSQCECLRGRKASLEELQSVHSERHVLLYGTNPLSRLKLDNGKLAGLLAQRMFVMLPCGGVGVDTDTIWNELHSSNAARWAAGSVTDLAFKVASRELKNGFAVVRPPGHHADHSTAMGFCFFNSVAIACRQLQQQSKASKILIVDWDVHHGNGTQQTFYQDPSVLYISLHRHDDGNFFPGSGAVDEVGAGSGEGFNVNVAWAGGLDPPMGDPEYLAAFRIVVMPIAREFSPDLVLVSAGFDAAEGHPAPLGGYHVSAKCFGYMTQQLMNLAGGAVVLALEGGHDLTAICDASEACVAALLGNRVDPLSEEGWKQKPNLNAIRSLEAVIRVHSKYWGCMQRLASCPDSWVPRVPGADKEEVEAVTALASLSVGILAEDRPSEQLVEEEEP
# notes: also called active GST-HDAC7; not shown: glutathione-S-transferase (GST) of the pGEX4T1 vector (Pharmacia), N-terminal fusion partner
# Legend:
# endogenous HDAC3, O15379 = target: T1, endogenous HDAC3, O15379
# T1 chain: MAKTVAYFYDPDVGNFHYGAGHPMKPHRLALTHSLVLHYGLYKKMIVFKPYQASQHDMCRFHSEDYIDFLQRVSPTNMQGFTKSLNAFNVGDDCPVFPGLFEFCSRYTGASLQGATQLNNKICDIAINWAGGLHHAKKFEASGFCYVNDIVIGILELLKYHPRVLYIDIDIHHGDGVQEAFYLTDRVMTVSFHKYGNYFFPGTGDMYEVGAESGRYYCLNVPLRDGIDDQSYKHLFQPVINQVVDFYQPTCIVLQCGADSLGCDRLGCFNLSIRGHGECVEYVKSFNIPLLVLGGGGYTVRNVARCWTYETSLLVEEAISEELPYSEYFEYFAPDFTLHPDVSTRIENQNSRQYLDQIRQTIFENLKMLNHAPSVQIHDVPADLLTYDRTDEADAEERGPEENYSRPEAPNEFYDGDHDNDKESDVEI
# endogenous HDAC2 = endogenous HDAC2 (UniProt Q92769 1-488); test: GST pull-down from SupT1 cell extracts, western blot
# Description: (§1) After incubation for 3 hours at 4° C. with rocking, reactions were washed three times in IPLS, three times in the same buffer but at 1 M NaCl, and two times in HD buffer (Fischle et al., supra). Pulldown reactions were split, and either processed for histone deacetylase activity assays or for western blotting. For pulldown reactions with ³⁵S-labeled proteins, cDNAs were transcribed and translated with the TNT reticulocyte system (Promega). The labeling reaction (5 μl) was incubated with GST fusion proteins in a total volume of 200 μl of GST buffer (20 mM Tris-HCl, pH 8.0, 150 mM KCl, 5 mM DTT, 2 mM EDTA, 10% glycerol, 0.5% non fat dry milk, 0.1% NP-40) for 1 h at 4° C. with rocking. Reactions were washed five times in the same buffer, and bound proteins were resolved on denaturing SDS-PAGE gels for analysis by autoradiography.
# (§2) After extensive washing, the bound material was tested for HDAC activity.
# endogenous HDAC1 = endogenous HDAC1 (UniProt Q13547 1-482); test: as above
# Sequence of endogenous HDAC1 (Q13547 whole entry): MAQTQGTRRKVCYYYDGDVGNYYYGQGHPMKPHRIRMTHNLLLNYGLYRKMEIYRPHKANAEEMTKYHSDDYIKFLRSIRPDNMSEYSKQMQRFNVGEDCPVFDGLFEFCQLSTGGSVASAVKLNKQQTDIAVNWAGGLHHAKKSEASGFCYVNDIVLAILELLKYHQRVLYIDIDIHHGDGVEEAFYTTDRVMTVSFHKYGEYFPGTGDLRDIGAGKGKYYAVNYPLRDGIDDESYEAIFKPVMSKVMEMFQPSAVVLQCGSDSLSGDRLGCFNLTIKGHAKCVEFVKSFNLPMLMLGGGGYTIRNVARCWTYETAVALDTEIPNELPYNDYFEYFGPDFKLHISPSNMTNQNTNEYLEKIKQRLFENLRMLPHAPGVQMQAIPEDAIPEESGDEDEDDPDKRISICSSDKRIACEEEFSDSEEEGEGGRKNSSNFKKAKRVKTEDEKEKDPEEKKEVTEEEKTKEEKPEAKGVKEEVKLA
# Description: as §1, §2
# Sequence of endogenous HDAC2 (Q92769 whole entry): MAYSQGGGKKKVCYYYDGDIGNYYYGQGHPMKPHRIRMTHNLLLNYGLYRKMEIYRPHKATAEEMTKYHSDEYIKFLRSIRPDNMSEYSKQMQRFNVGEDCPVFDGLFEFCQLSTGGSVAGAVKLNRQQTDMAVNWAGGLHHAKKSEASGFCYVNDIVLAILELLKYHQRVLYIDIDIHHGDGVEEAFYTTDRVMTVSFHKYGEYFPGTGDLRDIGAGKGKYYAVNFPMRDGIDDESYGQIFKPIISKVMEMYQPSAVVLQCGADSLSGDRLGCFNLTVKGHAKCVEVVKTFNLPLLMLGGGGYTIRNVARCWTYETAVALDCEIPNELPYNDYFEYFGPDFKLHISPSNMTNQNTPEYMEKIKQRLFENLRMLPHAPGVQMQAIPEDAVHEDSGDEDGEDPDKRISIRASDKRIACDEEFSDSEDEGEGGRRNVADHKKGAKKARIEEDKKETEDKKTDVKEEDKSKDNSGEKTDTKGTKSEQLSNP
binder,measurement,setting,value
B1,HDAC activity associated with the GST pull-down from GST-HDAC4 depleted lysate against GST depleted lysate (fold reduction),"endogenous HDAC3, O15379",3
same,binding result,endogenous HDAC2,no binding
same,binding result,endogenous HDAC1,no binding
